# According to patent US20120315271A1 (Pfizer, published 2012):
# B1: Fab fragment of humanized anti-NGF antibody E3 (Fab, V domains shown)
# VH: QVQLQESGPGLVKPSETLSLTCTVSGFSLIGYDLNWIRQPPGKGLEWIGIIWGDGTTDYNSAVKSRVTISKDTSKNQFSLKLSSVTAADTAVYYCARGGYWYATSYYFDYWGQGTLVTVS
# VL: DIQMTQSPSSLSASVGDRVTITCRASQSISNNLNWYQQKPGKAPKLLIYYTSRFHSGVPSRFSGSGSGTDFTFTISSLQPEDIATYYCQQEHTLPYTFGQGTKLEIK
# notes: Full antibody E3 has a human IgG2a heavy chain constant region with A330P331 to S330S331 and a human kappa light chain constant region
# Target: T1, human nerve growth factor (human, UniProt P01138 122-241, limits assumed)
# T1 construct: also called human NGF; hNGF
# Test: binding affinity measured with the Fab fragment; method not stated at this place (general BIAcore SPR protocol in paragraph 87); Fab, not IgG
# Experimental: To obtain monofunctional Fab fragments, an antibody (for example, IgG) can be cleaved with papain or expressed recombinantly. […] The concentrations of the Fab proteins are determined by ELISA and/or SDS-PAGE electrophoresis using a Fab of known concentration (as determined by amino acid analysis) as a standard. […] Equilibrium dissociation constant (KD) values are calculated as koff/kₒₙ.
# T1 sequence (P01138 122-241 limits assumed): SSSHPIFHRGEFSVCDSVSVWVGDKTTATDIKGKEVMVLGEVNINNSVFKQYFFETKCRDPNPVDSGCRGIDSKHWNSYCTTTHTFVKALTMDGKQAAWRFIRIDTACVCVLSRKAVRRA
binder,measurement,value
B1,Kd,~0.07 nM
